Literature values in publication PMC6780499, “Characterization, Recombinant Production and Structure-Function Analysis of NvCI, A Picomolar Metallocarboxypeptidase Inhibitor from the Marine Snail Nerita versicolor” (Marine Drugs, 2019).

Columns and labels:
hTAFI = molecular target: T1, hTAFI (Homo sapiens, UniProt Q96IY4); details: ref Arolas et al., 2005 [12]; cited from earlier work
T1 sequence (Q96IY4 115-423): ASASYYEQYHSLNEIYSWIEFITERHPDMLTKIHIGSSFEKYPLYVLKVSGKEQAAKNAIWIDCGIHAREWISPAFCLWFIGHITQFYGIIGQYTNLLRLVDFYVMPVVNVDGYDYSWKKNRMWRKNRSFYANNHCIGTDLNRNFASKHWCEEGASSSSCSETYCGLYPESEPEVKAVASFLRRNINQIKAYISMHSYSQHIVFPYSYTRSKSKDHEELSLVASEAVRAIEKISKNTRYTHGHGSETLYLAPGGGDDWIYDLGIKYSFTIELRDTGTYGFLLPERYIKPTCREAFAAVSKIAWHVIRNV
Excerpt: Table 2 Ki values of various proteinaceous metallocarboxypeptidases (MCPs) inhibitors. | column: Ki (nM) / rPCI (a); Ki (nM) / rTCI (b); Ki (nM) / rACI (d); Ki (nM) / rhuman latexin (e)

hCPA2 = molecular target: T2, hCPA2 (Homo sapiens, UniProt P48052); details: ref Arolas et al., 2005 [12]; cited from earlier work
T2 sequence (P48052 115-419): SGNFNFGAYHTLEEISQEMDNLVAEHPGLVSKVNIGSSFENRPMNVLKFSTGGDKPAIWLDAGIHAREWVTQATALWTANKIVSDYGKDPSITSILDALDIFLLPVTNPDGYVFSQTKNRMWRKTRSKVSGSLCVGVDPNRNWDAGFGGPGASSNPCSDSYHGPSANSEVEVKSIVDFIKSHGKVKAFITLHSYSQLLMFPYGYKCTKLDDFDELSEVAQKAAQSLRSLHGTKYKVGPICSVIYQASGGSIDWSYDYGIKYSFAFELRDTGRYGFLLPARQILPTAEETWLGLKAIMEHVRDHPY
Excerpt: (§1) Table 2 Ki values of various proteinaceous metallocarboxypeptidases (MCPs) inhibitors. | column: Ki (nM) / rPCI (a); Ki (nM) / rTCI (b); Ki (nM) / rLCI (c); Ki (nM) / rACI (d); Ki (nM) / rhuman latexin (e)

hCPA1 = molecular target: T3, hCPA1 (Homo sapiens, UniProt P15085); details: ref Arolas et al., 2005 [12]; cited from earlier work
T3 sequence (P15085 111-419): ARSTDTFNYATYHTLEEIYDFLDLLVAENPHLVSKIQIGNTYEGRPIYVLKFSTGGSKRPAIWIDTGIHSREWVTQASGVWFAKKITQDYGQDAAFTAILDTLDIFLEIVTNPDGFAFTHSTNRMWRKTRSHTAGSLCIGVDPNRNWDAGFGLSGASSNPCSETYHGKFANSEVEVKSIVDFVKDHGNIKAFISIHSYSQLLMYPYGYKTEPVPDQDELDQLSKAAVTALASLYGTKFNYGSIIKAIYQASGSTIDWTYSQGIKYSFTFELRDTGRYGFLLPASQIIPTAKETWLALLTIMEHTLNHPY
Excerpt: as §1

bCPA1 = molecular target: T4, bCPA1 (Bos taurus, UniProt P00730); details: ref Arolas et al., 2005 [12]; cited from earlier work
T4 sequence (P00730 111-419): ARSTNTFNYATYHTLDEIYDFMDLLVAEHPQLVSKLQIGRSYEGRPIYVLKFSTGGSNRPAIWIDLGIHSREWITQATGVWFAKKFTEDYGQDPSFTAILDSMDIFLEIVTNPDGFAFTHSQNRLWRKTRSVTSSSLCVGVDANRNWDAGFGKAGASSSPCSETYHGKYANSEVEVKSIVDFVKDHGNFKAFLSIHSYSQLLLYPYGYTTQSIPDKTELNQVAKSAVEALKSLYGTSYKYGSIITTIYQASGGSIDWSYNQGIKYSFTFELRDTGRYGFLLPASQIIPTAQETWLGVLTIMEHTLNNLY
Excerpt: as §1

hCPA4 = molecular target: T5, hCPA4 (Homo sapiens, UniProt Q9UI42); details: ref Tanco et al., 2010 [22]; cited from earlier work
T5 sequence (Q9UI42 114-421): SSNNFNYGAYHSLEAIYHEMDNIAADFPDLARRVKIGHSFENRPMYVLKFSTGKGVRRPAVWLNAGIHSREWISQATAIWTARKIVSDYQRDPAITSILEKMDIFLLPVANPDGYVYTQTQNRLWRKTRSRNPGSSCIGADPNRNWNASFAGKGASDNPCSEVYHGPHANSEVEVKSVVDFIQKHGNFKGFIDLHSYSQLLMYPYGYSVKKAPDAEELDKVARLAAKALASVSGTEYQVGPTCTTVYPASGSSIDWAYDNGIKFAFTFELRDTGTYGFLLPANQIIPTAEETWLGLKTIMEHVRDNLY
Excerpt: as §1

pCPB = molecular target: T6, pCPB (Sus scrofa, UniProt P09955); details: ref Arolas et al., 2005 [12]; cited from earlier work
T6 sequence (P09955 111-416): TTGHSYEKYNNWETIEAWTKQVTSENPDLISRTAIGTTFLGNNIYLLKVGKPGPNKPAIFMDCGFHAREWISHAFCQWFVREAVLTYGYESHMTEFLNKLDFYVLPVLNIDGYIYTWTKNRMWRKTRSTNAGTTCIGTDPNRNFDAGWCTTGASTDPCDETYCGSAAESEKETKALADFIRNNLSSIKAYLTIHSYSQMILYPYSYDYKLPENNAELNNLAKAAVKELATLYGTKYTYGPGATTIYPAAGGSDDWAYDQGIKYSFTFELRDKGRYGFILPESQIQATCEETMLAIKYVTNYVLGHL
Excerpt: Table 2 Ki values of various proteinaceous metallocarboxypeptidases (MCPs) inhibitors. | column: Ki (nM) / rPCI (a); Ki (nM) / rTCI (b); Ki (nM) / rLCI (c)

bTAFI = molecular target: T7, bTAFI (Bos taurus, UniProt Q2KIG3); details: ref Arolas et al., 2005 [12]; cited from earlier work
T7 sequence (Q2KIG3 115-423): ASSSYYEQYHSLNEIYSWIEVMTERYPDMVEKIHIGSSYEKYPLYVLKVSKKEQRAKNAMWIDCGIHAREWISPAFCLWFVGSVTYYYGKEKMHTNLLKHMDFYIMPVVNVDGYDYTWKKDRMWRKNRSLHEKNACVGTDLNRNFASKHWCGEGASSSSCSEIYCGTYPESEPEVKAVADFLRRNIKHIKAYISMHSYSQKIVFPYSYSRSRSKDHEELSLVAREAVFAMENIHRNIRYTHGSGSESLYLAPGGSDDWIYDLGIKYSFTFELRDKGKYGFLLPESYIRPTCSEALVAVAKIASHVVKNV
Excerpt: Table 2 Ki values of various proteinaceous metallocarboxypeptidases (MCPs) inhibitors. | column: Ki (nM) / rPCI (a); Ki (nM) / rTCI (b)

hCPB = molecular target: T8, hCPB (Homo sapiens, UniProt P15086); details: ref Arolas et al., 2005 [12]; cited from earlier work
T8 sequence (P15086 111-417): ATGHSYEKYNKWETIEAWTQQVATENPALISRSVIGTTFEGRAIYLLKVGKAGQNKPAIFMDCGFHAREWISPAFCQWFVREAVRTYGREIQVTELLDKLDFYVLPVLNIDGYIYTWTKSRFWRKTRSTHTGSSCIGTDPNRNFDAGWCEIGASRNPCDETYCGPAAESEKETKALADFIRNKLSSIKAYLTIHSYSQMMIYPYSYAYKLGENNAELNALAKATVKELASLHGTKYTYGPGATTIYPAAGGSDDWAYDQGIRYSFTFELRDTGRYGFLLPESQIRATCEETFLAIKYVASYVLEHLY
Excerpt: Table 2 Ki values of various proteinaceous metallocarboxypeptidases (MCPs) inhibitors. | column: Ki (nM) / rPCI (a); Ki (nM) / rTCI (b); Ki (nM) / rLCI (c); Ki (nM) / rhuman latexin (e)

In the case of “rPCI: recombinant proteinaceous carboxypeptidase inhibitor from potato (QQHADPICNKPCKTHDDCSGAWFCQACWNSARTCGPYVG; UniProt P01075 1-39, looked up) [reference compound]”, the Ki (hTAFI) is listed as 5.2 ± 0.5 nM, the Ki (hCPA2) is listed as 8.8 ± 0.7 nM and the Ki (hCPA1) is listed as 1.6 ± 0.3 nM. The Ki (bCPA1) was 1.6 ± 0.2 nM, the Ki (hCPA4) was 1.3 ± 0.1 nM and the Ki (pCPB) was 7.2 ± 0.6 nM. For the same substance, the Ki (bTAFI) was 2.5 ± 0.4 nM and the Ki (hCPB) was 1.8 ± 0.3 nM.
